Data taken from PMC7056357.
Read-outs that look alike come from different tables or passages of the source.

Columns and labels:
CD4-mRFP (human) = CD4-mRFP (human) (UniProt P01730); test: multicolour TIRF-dSTORM with interaction factor analysis
CCR5-mTFP1 = CCR5-mTFP1 (UniProt P51681)
[1] = biological target: T1, CXCR4-mTFP1 (human), P61073; test: number and brightness; settings: remark: other sources report otherwise
T1 chain: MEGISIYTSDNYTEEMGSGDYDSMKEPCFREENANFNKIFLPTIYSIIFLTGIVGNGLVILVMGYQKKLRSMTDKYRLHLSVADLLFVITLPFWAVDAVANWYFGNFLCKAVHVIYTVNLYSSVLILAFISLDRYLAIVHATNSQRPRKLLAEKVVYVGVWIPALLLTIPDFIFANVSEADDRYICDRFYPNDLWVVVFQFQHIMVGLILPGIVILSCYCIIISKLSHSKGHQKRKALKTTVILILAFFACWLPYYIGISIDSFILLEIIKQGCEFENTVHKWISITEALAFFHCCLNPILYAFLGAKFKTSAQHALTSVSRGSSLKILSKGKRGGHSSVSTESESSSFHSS

[2] = biological target: T1, CXCR4-mTFP1 (human), P61073; settings: remark: other sources report otherwise
[3] = biological target: T2, CXCR4-eYFP (human), P61073; test: multicolour TIRF-dSTORM with interaction factor analysis; settings: remark: other sources report otherwise
T2 chain: T1 chain

UniProt P51681, sequence (P51681 whole entry): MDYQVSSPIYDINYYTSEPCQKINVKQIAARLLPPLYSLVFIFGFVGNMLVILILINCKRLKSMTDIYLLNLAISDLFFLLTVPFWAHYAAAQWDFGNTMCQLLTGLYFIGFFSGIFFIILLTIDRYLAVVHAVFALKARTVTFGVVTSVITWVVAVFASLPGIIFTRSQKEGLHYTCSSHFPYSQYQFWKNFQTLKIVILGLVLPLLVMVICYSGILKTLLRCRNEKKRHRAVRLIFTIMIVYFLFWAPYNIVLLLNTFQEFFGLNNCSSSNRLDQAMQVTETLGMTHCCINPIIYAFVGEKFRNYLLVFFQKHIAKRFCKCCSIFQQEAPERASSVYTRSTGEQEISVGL

Molecule “HIV-1 JR-FL Env on HIV_(JR-FL) virions (complex)” has a probability of 3 CD4 molecules engaged with 1 Env spike (CD4-mRFP (human)) of 0.36, a probability of 4 CD4 molecules engaged with 1 Env spike (CD4-mRFP (human)) of 0.1 and a CCR5 molecules bound to a single Env trimer (CCR5-mTFP1) of 2.

B1: CXCR4-mTFP1, P61073 1-352 (receptor)
chain: T1 chain
B1 was tested, and the stoichiometry N [1] was 2 and the stoichiometry N [2] was 2.

B2: CXCR4-eYFP, P61073 1-352 (receptor)
chain: T1 chain
B2 was tested, and the stoichiometry N [3] was 2.
